According to US20030087319A1 (published 2003):
Each block holds one binder with its values, some of them ahead of it.

Key:
[1] = target: T1, recombinant active caspase-3 (PharMingen) (UniProt P42574 29-277, limits assumed); experiment: in vitro binding, 35S-labeled protein with recombinant active caspase, immunoprecipitation with caspase-specific antibodies, autoradiography
T1 sequence (looked up): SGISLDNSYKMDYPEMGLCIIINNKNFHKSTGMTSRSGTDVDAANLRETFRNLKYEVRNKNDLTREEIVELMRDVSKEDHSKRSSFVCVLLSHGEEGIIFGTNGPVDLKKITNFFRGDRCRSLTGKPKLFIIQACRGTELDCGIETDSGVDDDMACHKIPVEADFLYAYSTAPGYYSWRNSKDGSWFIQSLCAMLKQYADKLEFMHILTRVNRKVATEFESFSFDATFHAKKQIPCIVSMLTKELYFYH
Experimental: Binding between livin and caspases was tested by incubating ³⁵[S]-methionine-labeled livin with recombinant active caspase-3 and -7, immunoprecipitating with caspase specific antibodies, resolving on SDS-PAGE and visualising by autoradiography. Both caspase-3 and -7 interacted with livin, but not with the deletion mutant DC89 used as a negative control. Survivin, which was previously shown to interact with these caspases using whole cell lysates (Tamm et al., ibid), also bound to both caspases in this in vitro assay.
In vitro binding reactions were performed by combining recombinant active caspase-3 or -7 (PharMingen, San Diego, Calif.) with ³⁵[S]-methionine-labeled survivin or livin (wild-type and the three deletion mutants described herein), prepared using the TNT T7 reticulocyte lysate system (Promega Corp., Madison, Wis.). Samples were incubated with polyclonal antibodies against either caspase-3 or -7 (PharMingen, San Diego, Calif.) in 0.5 ml NETN buffer [20 mM Tris (pH 8.0), 100 mM NaCl, 1 mM EDTA, and 0.2% NP-40] for 1.5 hrs at 4° C. followed by protein G sepharose (Amersham Pharmacia Biotech, Piscataway N.J.) for 30 min. All samples were then washed three times in NETN buffer, boiled in Laemmli buffer, and resolved by 4-20% SDS-PAGE. […]

[2] = target: DEVD-cleaving caspases (caspase-3, -6, -7, -8, and -10); experiment: cell-based or functional assay

binding result [1]: no binding
B1: livin deletion mutant DC89 (other)
chain: MGPKDSAKCLHRGPQPSHWAAGDGPTQERCGPRSLGSPVLGLDTCRAWDHVDGQILGQLRPLTEEEEEEGAGATLSRGPAFPGMGS
modifications: 35[S]-methionine-labeled
notes: also called DC86; NH2-terminal fragment (amino acids 1-86); not shown: myc-His tag from the vector pcDNA3.1/myc-His

decrease in caspase activity (DEVD-AFC cleavage) in HeLa cells treated with TNF-a and cycloheximide [2]: 15 to 20%
B2: livin expressed from pcDNA3.1/V5/His-TOPO-livin in transfected HeLa cells, Q96CA5 1-298 (protein, not shown: small tags and cut ends)
chain: MGPKDSAKCLHRGPQPSHWAAGDGPTQERCGPRSLGSPVLGLDTCRAWDHVDGQILGQLRPLTEEEEEEGAGATLSRGPAFPGMGSEELRLASFYDWPLTAEVPPELLAAAGFFHTGHQDKVRCFFCYGGLQSWKRGDDPWTEHAKWFPSCQFLLRSKGRDFVHSVQETHSQLLGSWDPWEEPEDAAPVAPSVPASGYPELPTPRREVQSESAQEPGARDVEAQLRRLQEERTCKVCLDRAVSIVFVPCGHLVCAECAPGLQLCPICRAPVRSRVRTFLS
